From patent publication CN108239149A (NANJING LEGEND BIOTECHNOLOGY CO LTD, dated 2018) come the findings set out here.

Residue numbers refer to the chain shown, from its start.

Sequences and labels used below:
B1: 42G2D7C3 (antibody, V domains shown)
VH: DVQLLESGPGLVKPSQSLSLTCSVTGYSITSGYYWNWIRQFPGNNLEWMGSINYDGSNDYNPSLQDRISITRDTSKNQFFLKLNSVTTEDTATYYCARRLDYWGQGTTLIVSS
VL: QIVLTQSPAIMSASPGEKVTISCSASSFINYMYWYQQKPGSSPKPWILRTSTLASGVPARFSGSGSGTSYSLTISSMEAEDAATYYCQQYHSYPLTFGAGTKLELK
notes: Made recombinantly as variable region + constant region; also called 42G2D7D3
B2: 18B7F4G8 (antibody, V domains shown)
VH: DVQLQESGPDLVKPSQSLSLTCTVTGYSITSGYTWHWIRQFPGNKLEWMGYIHYSGSTKYNPSLKSRFSITRDTSKNQFFLQLNSMTAEDTATYYCARNSLFASWGHGTLVTVSA
VL: DIVLTQSPASLAVSLGQRATISCRASESVDTYGDSFMHWFQQKPGQPPKLLIYRASNLESGIPARFSGSGSRTDFTLTINPVEADDVATYYCQQSNEAPYTFGGGTKLEIK
notes: Mouse hybridoma clone; Detected with goat anti-mouse IgG
B3: 29A8H8C7 (antibody, V domains shown)
VH: DVQLQGSGPGLVKPSQSLSLTCTVTGYSITSDFAWDWIRQFPGNKLEWMGHIRFSGTTSYNPSLKSRISITRDTSKNQFFLQLNSVTSEDTATYYCARSTLITKGFFDYWGQGTTLTVSS
VL: DIVMTQSHKFMSTSVGGRVSITCKASQDVSPAVAWYQQKPGQSPKLLIYWASTRHTGVPDRFTGSGSGTDFTLTISSVQTEDLALYYCQQHYSTPWTFGGGTKLEIK
notes: Mouse hybridoma clone; Made recombinantly as variable region + constant region in HEK293-6E
B4: 53C1F3D4 (antibody, V domains shown)
VH: QVQLQQSGNELARPGASVRLSCKASGYIFTGYGITWVRQRPGQGLEWIGEIFPRRVNTYYSEKFKGRATLTADISSSTAYMELRSLTSEDSAVYFCARDYDPYFALDYWGQGTSVTVSS
VL: DIVMTQSHKFMSTSVGDRVSITCKASQDVSTAVDWYQQKPGQSPKLLIYSASYRYTGVPDRFTGSGSGTAFTFTISGEQAEDLAVYYCQQHYSIPFTFGGGTKLEIK
notes: as for B3
B5: 51F3D2G4 (antibody, V domains shown)
VH: QVQLQQSGAELARPGASVRLSCKASGYIFTGYGISWVKQRTGQGLEWIGEIFPRTANTYFNEKFKGKATLTADKSSSTAYMELRSLTSEDSAVYFCARDYDPYYALDYWGQGTSVTVSS
VL: B4 VL with S20T, G77S, I94V
notes: as for B3

For the first experiment, the target named is T1, 融合至人IgG1 Fc段的人PD-L1胞外结构域的重组蛋白PD-L1-Fc (GenScript, Z03371) (human, UniProt Q9NZQ7 19-238, biotin-labelled in the PD-1 competition ELISA (site not stated)).
T1 construct: extracellular domain; Bought reagent (GenScript Z03371); also called 重组PD-L1-Fc; 生物素标记的PD-L1-Fc; not shown: Human IgG1 Fc segment
T1 sequence (Q9NZQ7 19-238 limits assumed, one chain of several): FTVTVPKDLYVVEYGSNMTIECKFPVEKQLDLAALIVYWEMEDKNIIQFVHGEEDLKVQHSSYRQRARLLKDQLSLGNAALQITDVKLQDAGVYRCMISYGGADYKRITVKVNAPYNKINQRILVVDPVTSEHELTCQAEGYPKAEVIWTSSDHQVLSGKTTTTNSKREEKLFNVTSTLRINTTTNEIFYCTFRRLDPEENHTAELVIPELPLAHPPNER
Kind of experiment: indirect ELISA, PD-L1-Fc coated at 0.5 μg/ml, antibody titrated. On the technique in general: ELISA stands for enzyme-linked immunosorbent assay.
In general, EC50 refers to the midpoint of the concentration-response curve. Turning to B1, the EC50 turned out to be 0.00458 µg/mL.

B2: the EC50 stood at 0.00531 µg/mL. The EC50 values of the last two molecules are within 1.5-fold of each other.

B3 displayed an EC50 of 0.00498 µg/mL.

B4 returned an EC50 of 0.00467 µg/mL.

In the case of B5, the EC50 amounted to 0.0063 µg/mL.

In a further experiment the target is T1, 融合至人IgG1 Fc段的人PD-L1胞外结构域的重组蛋白PD-L1-Fc …. Kind of experiment: competition ELISA: antibody titrated against biotinylated PD-L1-Fc binding to coated human PD-1.
As usually defined, the IC50 is the concentration that inhibits the measured activity by half. Read a low IC50 as greater potency in that assay. Consider B1, for which the IC50 was determined as 0.48 µg/mL.

As for B3, the IC50 came out at 0.39 µg/mL.

The molecule B4 registered an IC50 of 0.32 µg/mL. The IC50 values of the last two molecules are within 1.5-fold of each other.

In turn, B5 yielded an IC50 of 0.4 µg/mL.

A further experiment addresses 人PD-L1 expressed on cells (表达PD-L1的CHO细胞) (human) (UniProt Q9NZQ7). Kind of experiment: cell-based or functional assay.
As to B1, the IL-2分泌 (混合淋巴细胞反应) EC50 was 0.235 µg/mL and the 相对光单位(RLU) NFAT报告细胞 EC50 is 1.17 µg/mL.

B2 showed an IL-2分泌 (混合淋巴细胞反应) EC50 of 0.359 µg/mL and a 相对光单位(RLU) NFAT报告细胞 EC50 of 0.359 µg/mL.

Regarding B3, the IL-2分泌 (混合淋巴细胞反应) EC50 amounted to 0.101 µg/mL and the 相对光单位(RLU) NFAT报告细胞 EC50 was determined as 0.751 µg/mL.

Take B4: the IL-2分泌 (混合淋巴细胞反应) EC50 worked out at 0.0947 µg/mL and the 相对光单位(RLU) NFAT报告细胞 EC50 is 0.576 µg/mL.

B5 yielded an IL-2分泌 (混合淋巴细胞反应) EC50 of 0.209 µg/mL and a 相对光单位(RLU) NFAT报告细胞 EC50 of 0.883 µg/mL.
